Test results reported in the supplement of paper PMC9732359.
± gives the uncertainty stated by the source.

Assay: protein stability index of a GFP-peptide fusion (yeast GPS) (PSI 1-4); higher = more stable; sorted into four equal gates, so the index is relative within each strain
Conditions: ubr1∆
How it was run: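 The protein stability index of a peptide was calculated by multiplying its read frequency in each gate by that gate's number and adding the products. The peptides were tiled 17-residue stretches of yeast proteins, fused downstream of GFP on a Cherry-expressing plasmid and carried in yeast as a pooled library. Mid-log cultures in leucine-free medium were sorted into four equal gates by GFP/Cherry ratio, and each gate's plasmids were PCR-amplified and Illumina-sequenced.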

Going from KVEKGVNIEPFNIDDEI [LIN1] to KVIKVLGRTGSRGGVTQ [RPS28A], the protein stability index falls from 3.49 ± 0.076 to 3.12 ± 0.083.

Going from KVPDISSDGQLKKFRES [BRR2] to KVSKNSTSFKNPRRLEI [YMR153W/NUP53], the protein stability index falls from 3.54 ± 0.065 to 2.71 ± 0.032.

Going from KVSYAVKKPQKSKTSTG [SNM1] to KYLYLRAVGGEVGASAA [RPL12A], the protein stability index falls from 3.24 ± 0.079 to 2.11 ± 0.1.

Going from KYRKRQLVTREAQIKDW [FAS2] to KYSDILLKKATKPEVAS [CDC53], the protein stability index falls from 3.22 ± 0.11 to 2.47 ± 0.17.

Going from LADILKANISLETLEHN [RPO21] to LADKLENYEGKQDKTLQ [YIL149C/MLP2], the protein stability index rises from 2.61 ± 0.11 to 3.17 ± 0.22.

Compared with LAKSKASLTAARTAANS [RPN6], LAKTKENYDAKIELEKK [YIL149C/MLP2] is higher in protein stability index: 2.7 ± 0.051 for the first, 3.13 ± 0.053 for the second.

LANFVAKGFYHTPMVNF [SRB8] and LAPTQLSAEYLVILKPD [SIN4] are within error of each other in protein stability index: 2.32 ± 0.048 for the first, 2.38 ± 0.074 for the second.

Compared with LAQLTSKLIPEVINKEI [RPS1A], LARGLRESTKALTRGEA [RPS12] is higher in protein stability index: 2.71 ± 0.07 for the first, 3.37 ± 0.044 for the second.

First: LARQVKLLLLNTSAIQE [YIL149C/MLP2]
Second: LASFEKTTDHLFDAAFY [RPO31]
The protein stability index of the first is lower: 1.65 ± 0.038 for the first, 3 ± 0.043 for the second.

Going from LATGPNLTSEIEDLRAD [YOR098C/NUP1] to LATPVQFELLSRRWRQR [BRR2], the protein stability index falls from 3.25 ± 0.082 to 2.17 ± 0.051.

Going from LATRRVLQEYRLTKQAF [RPO21] to LCKSATTKMWPTNCPLR [BRR2], the protein stability index falls from 3.17 ± 0.056 to 2.75 ± 0.094.

LCQINKCSTRGLSTDHT [YML103C/NUP188] and LDDNSTSLEKQINSIKK [YJL041W/NSP1] are within error of each other in protein stability index: 3.13 ± 0.18 for the first, 2.95 ± 0.045 for the second.

LDEIFSGCDSTKPSLRK [ECM29] and LDELQWKSPEWIQVFGL [MED6] are within error of each other in protein stability index: 2.65 ± 0.038 for the first, 2.56 ± 0.066 for the second.

First: LDEMELHPYNSRGLFEK [YDL116W/NUP84]
Second: LDENKWYKFNDDKVSVV [UBP6]
The protein stability index of the first is higher: 3.22 ± 0.063 for the first, 2.97 ± 0.081 for the second.

Compared with LDEVDAALDLSHTQNIG [SMC2], LDGKFSLFHTAVSVANG [RPN2] is lower in protein stability index: 3.12 ± 0.067 for the first, 2.37 ± 0.06 for the second.

Going from LDKFTDGGLFTLFVRDQ [QCR2] to LDKVINKELPINHTILG [RPN8], the protein stability index falls from 3.31 ± 0.054 to 2.4 ± 0.055.

Going from LDPINLPLDSQDDEYVK [PRP8] to LDPISLILIPGETMWVP [RPN13], the protein stability index rises from 3.05 ± 0.045 to 3.4 ± 0.12.

Compared with LDTYLPEDLNSLYIYYL [SIR2], LEANGRSLEKVNNSVSK [SSN2] is higher in protein stability index: 2.63 ± 0.063 for the first, 3.37 ± 0.1 for the second.

First: LEASLNSITKDNIDYAP [YJL039C/NUP192]
Second: LEATWNFIEPGINQILG [CDC53]
The protein stability index of the first is lower: 2.27 ± 0.026 for the first, 3.08 ± 0.12 for the second.

First: LEDIYTSAHEAIRADPA [RPL5]
Second: LEDLVFPTEIVGKRVRY [RPS7A]
The protein stability index of the first is lower: 3.19 ± 0.051 for the first, 3.71 ± 0.25 for the second.

Compared with LEEKKKRPNNKTLEKLE [IRR1], LEESDVEDTLHVNKRKR [YOR098C/NUP1] is lower in protein stability index: 3.27 ± 0.13 for the first, 2.91 ± 0.062 for the second.

Compared with LEEVSLKWIDTASKFGK [RPL3], LEFARITPMNDDQCMLI [SIN4] is higher in protein stability index: 1.95 ± 0.089 for the first, 3.31 ± 0.067 for the second.

Going from LEHVLLVPTASFFIASQ [FAS1] to LEKFLQGRDTSKLPDPE [SRP72], the protein stability index rises from 1.31 ± 0.027 to 2.77 ± 0.051.

Compared with LENATWTMRIEGRLLDN [SNF12], LENKADPLVSLMMVEKV [RPT6] is lower in protein stability index: 2.92 ± 0.066 for the first, 2.2 ± 0.099 for the second.

Going from LEPGCSVLLHHKTMSIV [RPT2] to LEQKIHEVEEILNELQP [SMC1], the protein stability index rises from 1.61 ± 0.04 to 3.14 ± 0.2.

Compared with LERLTLVFCKHITSVPI [GRR1], LERYYKEQADIYAKQQE [ARP7] is higher in protein stability index: 1.44 ± 0.047 for the first, 3.42 ± 0.14 for the second.
